In data set [1] the test system is HeLa Kyoto. Nature of the data set: solubility change mitosis vs G1/S (difference of NP-40 vs SDS log2 ratios) (log2 ratio difference); higher = more soluble in mitosis.
The subject of data set [2] is HeLa Kyoto. As to the kind of experiment: solubility in G1/S (NP-40 vs SDS abundance) (log2 ratio); higher = more soluble. As to conditions: cell cycle stage: G1/S.
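Throughout, for solubility change mitosis vs G1/S (difference of NP-40 vs SDS log2 ratios): synchronized HeLa Kyoto cells (double thymidine block for G1/S, nocodazole release for mitosis), protein amounts in NP-40 versus SDS lysates quantified by mass spectrometry, three biological replicates.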
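Throughout, for solubility in G1/S (NP-40 vs SDS abundance): HeLa Kyoto cells arrested at G1/S by double thymidine block, proteins quantified by TMT10plex mass spectrometry in mild NP-40 versus SDS extracts, three biological replicates.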

Consider “MAGNKGRGRAAYTFNIEAVGFSKGEKLPDVVLKPPPLFPDTDYKPVPLKTGEGEEYMLALKQELRETMKRMPYFIETPEERQDIERYSKRYMKVYKEEWIPDWRRLPREMMPRNKCKKAGPKPKKAKDAGKGTPLTNTEDVLKKMEELEKRGDGEKSDEENEEKEGSKEKSKEGDDDDDDDAAEQEEYDEEEQEEENDYINSYFEDGDDFGADSDDNMDEATY [POLR3G]”, for which the “solubility change mitosis (log2)” value with HeLa Kyoto [1] was -0.0224. In addition, the “solubility in G1/S (log2)” value in the data set with HeLa Kyoto [2] stood at 0.214.

For the sequence “MAGPAPPVADELPGPAARRLYSRMEASCLELALEGERLCKAGDFKTGVAFFEAAVQVGTEDLKTLSAIYSQLGNAYFYLKEHGRALEYHKHDLLLARTIGDRMGEAKASGNLGNTLKVLGRFDEAAVCCQRHLSIAQEQGDKVGEARALYNIGNVYHAKGKQLSWNAANATQDPGHLPPDVRETLCKASEFYERNLSLVKELGDRAAQGRAYGNLGNTHYLLGNFTEATTFHKERLAIAKEFGDKAAERRAYSNLGNAHVFLGRFDVAAEYYKKTLQLSRQLRDQAVEAQACYSLGNTYTLLQDYERAAEYHLRHLLIAQELADRVGEGRACWSLGNAYVSMGRPAQALTFAKKHLQISQEIGDRHGELTARMNVAQLQLVLGRLTSPAASEKPDLAGYEAQGARPKRTQRLSAETWDLLRLPLEREQNGDSHHSGDWRGPSRDSLPLPVRSRKYQEGPDAERRPREGSHSPLDSADVRVHVPRTSIPRAPSSDEECFFDLLTKFQSSRMDDQRCPLDDGQAGAAEATAAPTLEDRIAQPSMTASPQTEEFFDLIASSQSRRLDDQRASVGSLPGLRITHSNAGHLRGHGEPQEPGDDFFNMLIKYQSSRIDDQRCPPPDVLPRGPTMPDEDFFSLIQRVQAKRMDEQRVDLAGGPEQGAGGPPEPQQQCQPGAS [GPSM1]”, the “solubility change mitosis (log2)” value with HeLa Kyoto [1] is -0.0781. The “solubility in G1/S (log2)” value in the data set with HeLa Kyoto [2] worked out at 0.244.

Turning to “MAGPGSTGGQIGAAALAGGARSKVAPSVDFDHSCSDSVEYLTLNFGPFETVHRWRRLPPCDEFVGARRSKHTVVAYKDAIYVFGGDNGKTMLNDLLRFDVKDCSWCRAFTTGTPPAPRYHHSAVVYGSSMFVFGGYTGDIYSNSNLKNKNDLFEYKFATGQWTEWKIEGRLPVARSAHGATVYSDKLWIFAGYDGNARLNDMWTIGLQDRELTCWEEVAQSGEIPPSCCNFPVAVCRDKMFVFSGQSGAKITNNLFQFEFKDKTWTRIPTEHLLRGSPPPPQRRYGHTMVAFDRHLYVFGGAADNTLPNELHCYDVDFQTWEVVQPSSDSEVGGAEVPERACASEEVPTLTYEERVGFKKSRDVFGLDFGTTSAKQPTQPASELPSGRLFHAAAVISDAMYIFGGTVDNNIRSGEMYRFQFSCYPKCTLHEDYGRLWESRQFCDVEFVLGEKEECVQGHVAIVTARSRWLRRKITQARERLAQKLEQEAAPVPREAPGVAAGGARPPLLHVAIREAEARPFEVLMQFLYTDKIKYPRKGHVEDVLLIMDVYKLALSFQLCRLEQLCRQYIEASVDLQNVLVVCESAARLQLSQLKEHCLNFVVKESHFNQVIMMKEFERLSSPLIVEIVRRKQQPPPRTPLDQPVDIGTSLIQDMKAYLEGAGAEFCDITLLLDGHPRPAHKAILAARSSYFEAMFRSFMPEDGQVNISIGEMVPSRQAFESMLRYIYYGEVNMPPEDSLYLFAAPYYYGFYNNRLQAYCKQNLEMNVTVQNVLQILEAADKTQALDMKRHCLHIIVHQFTKVSKLPTLRSLSQQLLLDIIDSLASHISDKQCAELGADI [LZTR1]”, the “solubility change mitosis (log2)” value with HeLa Kyoto [1] was -0.0816. Further, the “solubility in G1/S (log2)” value in the data set on HeLa Kyoto [2] is -0.115.

Regarding “MAGQEDPVQREIHQDWANREYIEIITSSIKKIADFLNSFDMSCRSRLATLNEKLTALERRIEYIEARVTKGETLT [BRK1]”, the “solubility change mitosis (log2)” value in the data set on HeLa Kyoto [1] was determined as 0.228. Besides, in the data set with HeLa Kyoto [2], the “solubility in G1/S (log2)” value is -0.551.

“MAKAGDKSSSSGKKSLKRKAAAEELQEAAGAGDGATENGVQPPKAAAFPPGFSISEIKNKQRRHLMFTRWKQQQRKEKLAAKKKLKKEREALGDKAPPKPVPKTIDNQRVYDETTVDPNDEEVAYDEATDEFASYFNKQTSPKILITTSDRPHGRTVRLCEQLSTVIPNSHVYYRRGLALKKIIPQCIARDFTDLIVINEDRKTPNGLILSHLPNGPTAHFKMSSVRLRKEIKRRGKDPTEHIPEIILNNFTTRLGHSIGRMFASLFPHNPQFIGRQVATFHNQRDYIFFRFHRYIFRSEKKVGIQELGPRFTLKLRSLQKGTFDSKYGEYEWVHKPREMDTSRRKFHL [RPF1]”: in the data set with HeLa Kyoto [1], the “solubility change mitosis (log2)” value came out at 0.774. For the same sequence, the “solubility in G1/S (log2)” value in the data set with HeLa Kyoto [2] was -1.77.

Consider “MAKDAGLIEANGELKVFIDQNLSPGKGVVSLVAVHPSTVNPLGKQLLPKTFGQSNVNIAQQVVIGTPQRPAASNTLVVGSPHTPSTHFASQNQPSDSSPWSAGKRNRKGEKNGKGLRHFSMKVCEKVQRKGTTSYNEVADELVAEFSAADNHILPNESAYDQKNIRRRVYDALNVLMAMNIISKEKKEIKWIGLPTNSAQECQNLEVERQRRLERIKQKQSQLQELILQQIAFKNLVQRNRHAEQQASRPPPPNSVIHLPFIIVNTSKKTVIDCSISNDKFEYLFNFDNTFEIHDDIEVLKRMGMACGLESGSCSAEDLKMARSLVPKALEPYVTEMAQGTVGGVFITTAGSTSNGTRFSASDLTNGADGMLATSSNGSQYSGSRVETPVSYVGEDDEEDDDFNENDEDD [TFDP1]”, for which, in the data set on HeLa Kyoto [1], the “solubility change mitosis (log2)” value was -0.176. For the same sequence, the “solubility in G1/S (log2)” value with HeLa Kyoto [2] was determined as 0.136.

On to “MAKSPENSTLEEILGQYQRSLREHASRSIHQLTCALKEGDVTIGEDAPNLSFSTSVGNEDARTAWPELQQSHAVNQLKDLLRQQADKESEVSPSRRRKMSPLRSLEHEETNMPTMHDLVHTINDQSQYIHHLEAEVKFCKEELSGMKNKIQVVVLENEGLQQQLKSQRQEETLREQTLLDASGNMHNSWITTGEDSGVGETSKRPFSHDNADFGKAASAGEQLELEKLKLTYEEKCEIEESQLKFLRNDLAEYQRTCEDLKEQLKHKEFLLAANTCNRVGGLCLKCAQHEAVLSQTHTNVHMQTIERLVKERDDLMSALVSVRSSLADTQQREASAYEQVKQVLQISEEANFEKTKALIQCDQLRKELERQAERLEKELASQQEKRAIEKDMMKKEITKEREYMGSKMLILSQNIAQLEAQVEKVTKEKISAINQLEEIQSQLASREMDVTKVCGEMRYQLNKTNMEKDEAEKEHREFRAKTNRDLEIKDQEIEKLRIELDESKQHLEQEQQKAALAREECLRLTELLGESEHQLHLTRQEKDSIQQSFSKEAKAQALQAQQREQELTQKIQQMEAQHDKTENEQYLLLTSQNTFLTKLKEECCTLAKKLEQISQKTRSEIAQLSQEKRYTYDKLGKLQRRNEELEEQCVQHGRVHETMKQRLRQLDKHSQATAQQLVQLLSKQNQLLLERQSLSEEVDRLRTQLPSMPQSDC [SDCCAG8]”, for which the “solubility change mitosis (log2)” value in the data set with HeLa Kyoto [1] came out at 0.0872. In addition, the “solubility in G1/S (log2)” value with HeLa Kyoto [2] was determined as 0.52.

On to “MALLRKINQVLLFLLIVTLCVILYKKVHKGTVPKNDADDESETPEELEEEIPVVICAAAGRMGATMAAINSIYSNTDANILFYVVGLRNTLTRIRKWIEHSKLREINFKIVEFNPMVLKGKIRPDSSRPELLQPLNFVRFYLPLLIHQHEKVIYLDDDVIVQGDIQELYDTTLALGHAAAFSDDCDLPSAQDINRLVGLQNTYMGYLDYRKKAIKDLGISPSTCSFNPGVIVANMTEWKHQRITKQLEKWMQKNVEENLYSSSLGGGVATSPMLIVFHGKYSTINPLWHIRHLGWNPDARYSEHFLQEAKLLHWNGRHKPWDFPSVHNDLWESWFVPDPAGIFKLNHHS [GLT8D2]”, for which the “solubility change mitosis (log2)” value in the data set on HeLa Kyoto [1] was -0.357. For the same sequence, the “solubility in G1/S (log2)” value with HeLa Kyoto [2] was 0.233.

Regarding “MALRLLRRAARGAAAAALLRLKASLAADIPRLGYSSSSHHKYIPRRAVLYVPGNDEKKIKKIPSLNVDCAVLDCEDGVAANKKNEARLRIVKTLEDIDLGPTEKCVRVNSVSSGLAEEDLETLLQSRVLPSSLMLPKVESPEEIQWFADKFSFHLKGRKLEQPMNLIPFVETAMGLLNFKAVCEETLKVGPQVGLFLDAVVFGGEDFRASIGATSSKETLDILYARQKIVVIAKAFGLQAIDLVYIDFRDGAGLLRQSREGAAMGFTGKQVIHPNQIAVVQEQFSPSPEKIKWAEELIAAFKEHQQLGKGAFTFQGSMIDMPLLKQAQNTVTLATSIKEK [CLYBL]”, the “solubility change mitosis (log2)” value in the data set with HeLa Kyoto [1] was 0.0246. Besides, the “solubility in G1/S (log2)” value in the data set on HeLa Kyoto [2] is -0.168.

“MAMVVSSWRDPQDDVAGGNPGGPNPAAQAARGGGGGAGEQQQQAGSGAPHTPQTPGQPGAPATPGTAGDKGQGPPGSGQSQQHIECVVCGDKSSGKHYGQFTCEGCKSFFKRSVRRNLTYTCRANRNCPIDQHHRNQCQYCRLKKCLKVGMRREAVQRGRMPPTQPNPGQYALTNGDPLNGHCYLSGYISLLLRAEPYPTSRYGSQCMQPNNIMGIENICELAARLLFSAVEWARNIPFFPDLQITDQVSLLRLTWSELFVLNAAQCSMPLHVAPLLAAAGLHASPMSADRVVAFMDHIRIFQEQVEKLKALHVDSAEYSCLKAIVLFTSDACGLSDAAHIESLQEKSQCALEEYVRSQYPNQPSRFGKLLLRLPSLRTVSSSVIEQLFFVRLVGKTPIETLIRDMLLSGSSFNWPYMSIQCS [NR2F1]”: the “solubility change mitosis (log2)” value with HeLa Kyoto [1] was found to be 0.0314. The “solubility in G1/S (log2)” value in the data set with HeLa Kyoto [2] is -0.152.

In the case of “MAREPRKNAALDAQSAEDQTGLLTVKVEKEEASALTAEVRAPCSPARGPERSRQRFRGFRYPEAAGPREALSRLRELCGQWLQPEMHSKEQILELLVLEQFLTILPGNLQSWVREQHPESGEEVVVLLEYLERQLDEPAPQVPVGDQGQELLCCKMALLTQTQGSQSSQCQPMKALFKHESLGSQPLHDRVLQVPGLAQGGCCREDAMVASRLTPGSQGLLKMEDVALTLTPGWTQLDSSQVNLYRDEKQENHSSLVSLGGEIQTKSRDLPPVKKLPEKEHGKICHLREDIAQIPTHAEAGEQEGRLQRKQKNAIGSRRHYCHECGKSFAQSSGLTKHRRIHTGEKPYECEDCGKTFIGSSALVIHQRVHTGEKPYECEECGKVFSHSSNLIKHQRTHTGEKPYECDDCGKTFSQSCSLLEHHKIHTGEKPYQCNMCGKAFRRNSHLLRHQRIHGDKNVQNPEHGESWESQGRTESQWENTEAPVSYKCNECERSFTRNRSLIEHQKIHTGEKPYQCDTCGKGFTRTSYLVQHQRSHVGKKTLSQ [ZKSCAN4]”, the “solubility change mitosis (log2)” value in the data set on HeLa Kyoto [1] was determined as 0.361. Besides, the “solubility in G1/S (log2)” value in the data set on HeLa Kyoto [2] is -0.299.

In the case of “MARISFSYLCPASWYFTVPTVSPFLRQRVAFLGLFFISCLLLLMLIIDFRHWSASLPRDRQYERYLARVGELEATDTEDPNLNYGLVVDCGSSGSRIFVYFWPRHNGNPHDLLDIKQMRDRNSQPVVKKIKPGISAMADTPEHASDYLRPLLSFAAAHVPVKKHKETPLYILCTAGMRLLPERKQLAILADLVKDLPLEFDFLFSQSQAEVISGKQEGVYAWIGINFVLGRFDHEDESDAEATQELAAGRRRTVGILDMGGASLQIAYEVPTSTSVLPAKQEEAAKILLAEFNLGCDVQHTEHVYRVYVTTFLGFGGNFARQRYEDLVLNETLNKNRLLGQKTGLSPDNPFLDPCLPVGLTDVVERNSQVLHVRGRGDWVSCGAMLSPLLARSNTSQASLNGIYQSPIDFNNSEFYGFSEFFYCTEDVLRIGGRYHGPTFAKAAQDYCGMAWSVLTQRFKNGLFSSHADEHRLKYQCFKSAWMYQVLHEGFHFPYDYPNLRTAQLVYDREVQWTLGAILYKTRFLPLRDLRQEGVRQAHGSWFRLSFVYNHYLFFACILVVLLAIFLYLLRLRRIHHRQTRASAPLDLLWLEEVVPMMGVQVGP [ENTPD7]”, the “solubility change mitosis (log2)” value in the data set on HeLa Kyoto [1] was determined as 0.145. In the data set with HeLa Kyoto [2], the “solubility in G1/S (log2)” value was -0.358.
